Test [1] has as its target T1, EpCAM antigen immobilized on CM5 sensor chip (human, UniProt P16422 24-265, limits assumed).
T1 sequence: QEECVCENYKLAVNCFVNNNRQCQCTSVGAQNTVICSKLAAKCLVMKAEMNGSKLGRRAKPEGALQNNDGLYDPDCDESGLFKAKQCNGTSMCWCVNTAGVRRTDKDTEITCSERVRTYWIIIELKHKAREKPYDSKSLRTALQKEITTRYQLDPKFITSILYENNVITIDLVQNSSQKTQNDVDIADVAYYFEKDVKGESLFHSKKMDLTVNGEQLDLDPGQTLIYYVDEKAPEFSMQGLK
Kind of test: SPR (BIAcore), EpCAM antigen immobilized on CM5 chip, mAb injected. As for the experimental part:
(§1) The affinity of murine and humanized antibodies was performed by surface plasmon resonance (BIAcore T100, Biacore, Inc). EpCAM antigen was immobilized on a Series S Sensor Chip CM5 (Biacore, Inc) and injected at a flow rate of 10 μl/min. The mAbs were diluted in HBS-EP⁺ buffer (Biacore, Inc) and injected at a flow rate of 50 μl/min for 1.5 min, and were allowed to dissociate over 5 min. […] The data were analyzed by the BIAevaluation software with a global fit 1:1 binding model.

Test [2] addresses T2, human epithelial cell adhesion molecule (EpCAM), endogenous in SAS and other cancer cells (human, UniProt P16422 24-314).
T2 construct: also called TACSTD1; epithelial specific antigen (ESA)
T2 sequence: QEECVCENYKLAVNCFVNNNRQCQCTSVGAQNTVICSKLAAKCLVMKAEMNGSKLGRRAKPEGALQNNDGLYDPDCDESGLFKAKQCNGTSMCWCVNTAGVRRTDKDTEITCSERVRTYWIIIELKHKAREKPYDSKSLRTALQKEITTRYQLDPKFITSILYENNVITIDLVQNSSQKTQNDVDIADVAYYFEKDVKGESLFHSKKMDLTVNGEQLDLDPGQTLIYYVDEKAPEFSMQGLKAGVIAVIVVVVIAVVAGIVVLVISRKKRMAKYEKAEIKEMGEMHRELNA
The test is described as follows: cellular ELISA on SAS cells, OD490nm.

Test [3] has as its target T1, EpCAM antigen immobilized on CM5 sensor …. The test is described as follows: SPR (BIAcore T100), EpCAM antigen immobilized on CM5 chip, mAb injected, 1:1 global fit. How it is done:
as §1

Residue numbers refer to the chain shown, from its start.

B1: EpAb4-1 (antibody, V domains shown)
VH: QIQLVQSGPELKKPGETVKISCKASGYTFTNYGMNWVKQAPGKGLKWMGWINTYTGEPTYGDDFKGRFAFSLETSASTAYLQINNLKNEDTATYFCARFGRSVDFWGQGTSVTVSS
VL: DIVMTQAAFSNPVTLGTSASISCRSSKSLLHSNGITYLYWYLQKPGQSPQLLIYHMSNLASGVPDRFSSSGSGTDFTLRISRVEAEDVGIYYCAQNLENPRTFGGGTKLEIK
In test [1], B1 showed a dissociation constant (Kd) of 0.00123 nM, a koff of 3.52e-07 s⁻¹ and an on-rate (kon) of 286000 M⁻¹ s⁻¹.

B2: EpAb2-6 (antibody, V domains shown)
VH: EVQLVESGPELKKPGETVKISCKASGYTFTDYSMHWVKQAPGKGLKWMGWINTETGEPTFADDFKGRFAFSLETSARTTYLQINNLKNEDTATYFCARTAVYWGQGTSLTVSS
VL: DIQLTQSPSSLSASLGERVSLTCRASQEISVSLSWLQQKPDGTIKRLIYATSTLDSGVPKRFSGSRSGSDYSLTISSLESEDFADYYCLQYASYPWTFGGGTKLEIKR
notes: Mouse hybridoma monoclonal IgG; also called mEpAb2-6; murine EpAb2-6
As to B2, the concentration giving a half-maximal response (EC50 (read off the curve)) in test [2] is about 0.01 µg/mL. Further, in test [1], the koff stood at 0.00014 s⁻¹ and the kon is 401000 M⁻¹ s⁻¹. Moreover, binding in test [3] was put at a Kd of 0.349 nM.

B3: humanized EpAb2-6 (antibody, V domains shown)
VH: VKLQESGPELKKPGETVKISCKASGYTFTDYSMHWVKQAPGKGLKWMGWINTETGEPTYADDFKGRFAFSLETSASTAYLQINNLKNEDTATYFCARTAVYWGQGTTVTVSS
VL: B2 VL with L4M, K39E, A84V
notes: CDRs of EpAb2-6 grafted onto a human IgG1 backbone; also called hEpAb2-6
As to B3, in test [2], the “EC50 (read off the curve)” value was about 0.02 µg/mL. In test [1], this molecule returned a koff of 0.000254 s⁻¹ and a kon of 376000 M⁻¹ s⁻¹. The same molecule gave a Kd in test [3] of 0.677 nM.
